Test results from US20140356384A1 (COLE POLYTECHNIQUE F D RALE DE LAUSANNE EPFL, published 2014).

B1: ERY1-OVA (ERY1 peptide chemically conjugated to ovalbumin through SMCC) (other)
peptide: WMVLPWLPGTLDGGSGCRG
chain: GSIGAASMEFCFDVFKELKVHHANENIFYCPIAIMSALAMVYLGAKDSTRTQINKVVRFDKLPGFGDSIEAQCGTSVNVHSSLRDILNQITKPNDVYSFSLASRLYAEERYPILPEYLQCVKELYRGGLEPINFQTAADQARELINSWVESQTNGIIRNVLQPSSVDSQTAMVLVNAIVFKGLWEKAFKDEDTQAMPFRVTEQESKPVQMMYQIGLFRVASMASEKMKILELPFASGTMSMLVLLPDEVSGLEQLESIINFEKLTEWTSSNVMEERKIKVYLPRMKMEEKYNLTSVLMAMGITDVFSSSANLSGISSAESLKISQAVHAAHAEINEAGREVVGSAEAGVDAASVSEEFRADHPFLFCIKHIATNAVLFFGRCVSP
modifications: lysine side chains carry SMCC linked to the cysteine of the ERY1 peptide; C-terminal amide (CONH2); cysteine side chain conjugated through SMCC to lysine side chains of OVA
notes: also called ERY1-conjugated protein
B2: MIS-OVA (OVA conjugated with the mismatch peptide through SMCC) (other)
peptide: PLLTVGMDLWPWGGSGCRG
chain: B1 chain
modifications: lysine side chains carry SMCC linked to the cysteine of the MIS peptide; C-terminal amide (CONH2); cysteine side chain conjugated through SMCC to lysine side chains of OVA

Key:
[1] = biological target: T1, mouse glycophorin-A (GYPA) on the erythrocyte membrane (mouse, UniProt P14220 1-168); test: equilibrium binding to mouse erythrocytes by flow cytometry, one-site binding fit
[2] = biological target: T1, mouse glycophorin-A (GYPA) on the …; test: flow cytometry of mouse erythrocytes incubated with the OVA conjugate, OVA detected on the cell surface

Binder | Kd [1] [nM] | binding result [2]
B1 | 6.2 | –
B2 | – | no binding
